Assay results as given in US20240116985A1, “STAPLED PEPTIDES AND METHODS THEREOF” (priority 2020, published 2024).
Starred links: 1 amine or outer side, 2 acyl side, 3 side chain; linkers in the order of their positions; H or OH if unused. Positions of bridges follow the written chain, without caps; N, C: chain ends. Non-standard residues stand in square brackets, D forms with d. Primed or numbered codes have the meaning given here. PyrS2″ = (S)-3-amino-1-((pent-4-en-1-yloxy)carbonyl)pyrrolidine-3-carboxylic acid (stapling residue), C=CCCCOC(=O)N1CC[C@@](N[*:1])(C(=O)[*:2])C1; B5(4) = 2,2-bis(4-pentenyl)glycine = 2-amino-2-(pent-4-en-1-yl)hept-6-enoic acid (stitching residue), C=CCCCC(CCCC=C)(N[*:1])C(=O)[*:2]; B5(5) = 2,2-bis(4-pentenyl)glycine, 2-amino-2-(pent-4-en-1-yl)hept-6-enoic acid (stitching residue), C=CCCCC(CCCC=C)(N[*:1])C(=O)[*:2]; B5(3) = 2,2-bis(4-pentenyl)glycine (stitching residue), C=CCCCC(CCCC=C)(N[*:1])C(=O)[*:2]; Phe(2-Cl) = N[C@@H](Cc1ccccc1Cl)C(=O)O; Phe(2-OMe) = COc1ccccc1C[C@H](N)C(=O)O; 1Nal = N[C@@H](Cc1cccc2ccccc12)C(=O)O; Phe(2-F) = N[C@@H](Cc1ccccc1F)C(=O)O; Bta = N[C@@H](Cc1csc2ccccc12)C(=O)O; αAllylPro = C=CC[C@@]1(C(=O)O)CCCN1; tBuAla = CC(C)(C)C[C@H](N)C(=O)O; Cha = N[C@@H](CC1CCCCC1)C(=O)O; S8 = C=CCCCCCC[C@](C)(N)C(=O)O; Nle = CCCC[C@H](N)C(=O)O; Aib = CC(C)(N)C(=O)O

B1: I-1093 (peptide)
peptide: Ac-[αAllylPro]D[tBuAla][B5(4)]DEAAFT[S8][Phe(2-Cl)][Bta][dT]-NH2
modifications: staple 1-4, 4-11; also: earlier-eluting isomer composition
B2: I-1094 (peptide)
peptide: Ac-[αAllylPro]D[tBuAla][B5(5)]DEAAFT[S8][Phe(2-Cl)][Bta][dT]-NH2
modifications: staple 1-4, 4-11; also: later-eluting isomer
B3: I-1096 (peptide)
peptide: Ac-[αAllylPro]D[tBuAla][B5(5)]DEAAFL[S8][Phe(2-Cl)][Bta]Q-NH2
modifications: staple 1-4, 4-11
B4: I-1098 (peptide)
peptide: Ac-[αAllylPro]D[tBuAla][B5(5)]DEAAFL[S8][Phe(2-Cl)][Bta][dT]-NH2
modifications: staple 1-4, 4-11
B5: I-1100 (peptide)
peptide: Ac-[αAllylPro]D[Cha][B5(5)]DDAAFS[PyrS2″]F[Bta]S-NH2
modifications: staple 1-4, 4-11
B6: I-1101 (peptide)
peptide: Ac-[αAllylPro]D[tBuAla][B5(5)]DDAAFS[PyrS2″][Phe(2-F)][Bta]S-NH2
modifications: staple 1-4, 4-11
B7: I-1102 (peptide)
peptide: Ac-[αAllylPro]D[Cha][B5(5)]DDAAFS[PyrS2″][Phe(2-F)][Bta]S-NH2
modifications: staple 1-4, 4-11
B8: I-1103 (peptide)
peptide: Ac-[αAllylPro]D[tBuAla][B5(5)]DDAAFS[PyrS2″][Phe(2-OMe)][Bta]S-NH2
modifications: staple 1-4, 4-11
B9: I-1104 (peptide)
peptide: Ac-[αAllylPro]D[Cha][B5(5)]DDAAFS[PyrS2″][Phe(2-OMe)][Bta]S-NH2
modifications: staple 1-4, 4-11
B10: I-1107 (peptide)
peptide: Ac-[αAllylPro]D[Cha][B5(5)]DDAAF[Cha][PyrS2″][Phe(2-Cl)][Bta]Q-NH2
modifications: staple 1-4, 4-11
B11: I-1108 (peptide)
peptide: Ac-[αAllylPro]D[1Nal][B5(5)]DDAAFS[PyrS2″][Phe(2-Cl)][Bta]Q-NH2
modifications: staple 1-4, 4-11
B12: I-736 (peptide)
peptide: Ac-[αAllylPro]DL[B5(5)]DEAAFN[S8]F[Bta]Q[Aib]-NH2
modifications: staple 1-4, 4-11; also: earlier-eluting staple isomer
B13: I-737 (peptide)
peptide: Ac-[αAllylPro]DL[B5(5)]DEAAFN[S8]F[Bta]Q[Aib]-NH2
modifications: staple 1-4, 4-11; also: later-eluting staple isomer
B14: I-743 (peptide)
peptide: Ac-[αAllylPro]DL[B5(5)]DEAAFN[S8]F[Bta]H[Aib]-NH2
modifications: staple 1-4, 4-11
B15: I-727 (peptide)
peptide: Ac-[αAllylPro]DI[B5(4)]DEAA[tBuAla]Q[S8]F[Bta]Q-NH2
modifications: staple 1-4, 4-11
B16: I-728 (peptide)
peptide: Ac-[αAllylPro]DI[B5(4)]DEAA[Nle]Q[S8]F[Bta]Q-NH2
modifications: staple 1-4, 4-11

These binders were tested against full-length beta-Catenin (Uniprot ID P35222) (Homo sapiens (Human)) (UniProt P35222) (assay: fluorescence polarization competition; full-length beta-catenin + 5FAM-TCF4(10-53) probe as competitor).
Target sequence in this assay (P35222 2-781 limits assumed): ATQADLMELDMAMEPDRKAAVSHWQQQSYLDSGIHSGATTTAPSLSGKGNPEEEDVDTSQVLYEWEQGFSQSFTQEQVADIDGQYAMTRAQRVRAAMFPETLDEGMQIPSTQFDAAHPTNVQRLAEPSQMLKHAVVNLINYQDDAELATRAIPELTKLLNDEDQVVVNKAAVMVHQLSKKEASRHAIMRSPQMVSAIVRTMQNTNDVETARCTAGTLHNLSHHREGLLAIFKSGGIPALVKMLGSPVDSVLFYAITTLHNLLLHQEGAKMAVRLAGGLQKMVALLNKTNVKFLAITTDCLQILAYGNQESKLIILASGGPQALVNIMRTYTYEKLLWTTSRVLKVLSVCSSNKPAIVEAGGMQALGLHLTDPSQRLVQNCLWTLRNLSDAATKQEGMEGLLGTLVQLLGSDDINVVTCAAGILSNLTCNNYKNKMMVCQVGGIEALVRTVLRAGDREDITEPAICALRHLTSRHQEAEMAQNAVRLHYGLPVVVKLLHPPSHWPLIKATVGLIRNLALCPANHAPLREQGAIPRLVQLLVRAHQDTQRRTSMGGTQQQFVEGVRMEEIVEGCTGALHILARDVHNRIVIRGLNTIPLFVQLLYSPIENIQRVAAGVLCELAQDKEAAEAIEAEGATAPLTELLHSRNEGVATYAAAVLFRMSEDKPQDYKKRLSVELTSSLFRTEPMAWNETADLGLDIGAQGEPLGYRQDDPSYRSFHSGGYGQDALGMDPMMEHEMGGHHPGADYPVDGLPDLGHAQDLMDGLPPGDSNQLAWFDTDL

B1 and B2 are within 1.5-fold of each other in EC50: 43 nM for the first, 46 nM for the second.

Going from B3 to B4, the EC50 rises from 17 nM to 100 nM (5.9-fold).

B5 and B6 are within 1.5-fold of each other in EC50: 16 nM for the first, 14 nM for the second.

B7 and B8 are within 1.5-fold of each other in EC50: 16 nM for the first, 15 nM for the second.

First: B9
Second: B10
The EC50 of the first is 1.8-fold lower: 10 nM for the first, 18 nM for the second. The first is the more potent here.

Work on B11 yielded an EC50 of 18 nM.

These binders were tested against full-length beta-Catenin (Uniprot ID P35222) (Homo sapiens (Human)) (UniProt P35222) (assay: fluorescence polarization competition; full-length beta-catenin, competitor 5FAM-TCF4(10-53) probe).
Target sequence in this assay (P35222 whole entry, the tested form may be a part): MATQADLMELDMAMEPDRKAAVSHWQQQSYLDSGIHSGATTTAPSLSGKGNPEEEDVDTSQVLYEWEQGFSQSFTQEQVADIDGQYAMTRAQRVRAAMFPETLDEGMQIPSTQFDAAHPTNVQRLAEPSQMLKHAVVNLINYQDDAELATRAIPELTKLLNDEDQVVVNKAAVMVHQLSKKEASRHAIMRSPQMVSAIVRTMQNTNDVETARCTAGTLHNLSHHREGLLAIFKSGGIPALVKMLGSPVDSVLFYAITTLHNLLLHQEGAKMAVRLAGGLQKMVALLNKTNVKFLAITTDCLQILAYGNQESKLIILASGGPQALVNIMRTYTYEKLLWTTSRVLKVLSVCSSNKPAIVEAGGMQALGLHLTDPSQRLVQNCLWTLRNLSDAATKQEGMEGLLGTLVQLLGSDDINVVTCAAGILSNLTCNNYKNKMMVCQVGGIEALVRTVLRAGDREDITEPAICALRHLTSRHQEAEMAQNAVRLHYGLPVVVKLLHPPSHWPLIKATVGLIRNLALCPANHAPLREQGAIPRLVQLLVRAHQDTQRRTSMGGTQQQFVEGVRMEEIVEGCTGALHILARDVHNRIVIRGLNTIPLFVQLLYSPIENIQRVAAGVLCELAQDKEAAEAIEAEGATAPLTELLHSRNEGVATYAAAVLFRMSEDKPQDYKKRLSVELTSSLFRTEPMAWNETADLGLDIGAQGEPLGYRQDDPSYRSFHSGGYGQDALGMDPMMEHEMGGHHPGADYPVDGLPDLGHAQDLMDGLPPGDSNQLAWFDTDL

B12 and B13 are within 1.5-fold of each other in IC50: 440 nM for the first, 353 nM for the second.

Compared with B14, B15 is 59-fold higher in IC50: 85 nM for the first, 5000 nM for the second. The first is the more potent here.

With B16 the IC50 was 289 nM.

Each binder was assayed against full-length beta-Catenin (Uniprot ID P35222) (Homo sapiens (Human)) (UniProt P35222) (assay: fluorescence polarization competition; displacement of 5FAM-TCF4(10-53) from full-length beta-catenin).
Target sequence in this assay (P35222 whole entry, the tested form may be a part): as above

B1 and B2 are within 1.5-fold of each other in IC50: 43 nM for the first, 46 nM for the second.

First: B3
Second: B4
The IC50 of the first is 5.9-fold lower: 17 nM for the first, 100 nM for the second.

B5 and B6 are within 1.5-fold of each other in IC50: 16 nM for the first, 14 nM for the second.

B7 and B8 are within 1.5-fold of each other in IC50: 16 nM for the first, 15 nM for the second.

First: B9
Second: B10
The IC50 of the first is 1.8-fold lower: 10 nM for the first, 18 nM for the second. The first is the more potent here.

B11 was tested, and the IC50 was 18 nM.

What follows are binders tested against full-length beta-Catenin (Uniprot ID P35222) (Homo sapiens (Human)) (UniProt P35222) (assay: fluorescence polarization competition; full-length beta-catenin with 5FAM-labeled TCF4 residues 10-53 probe as competitor).
Target sequence in this assay (P35222 whole entry, the tested form may be a part): as above

B12 and B13 are within 1.5-fold of each other in EC50: 440 nM for the first, 353 nM for the second.

Compared with B14, B15 is 59-fold higher in EC50: 85 nM for the first, 5000 nM for the second. The first is the more potent here.

B16 was tested, and the EC50 was 289 nM.
